# Legend:
# HCAVSMCs = experiment: Flow cytometric uptake and retention of MK2i-NPs and p-HSP20-NPs (30 min treatment); details: 3 days after treatment removal
# Procedure: For MK2i-NP and HSP20-NP studies, An amine-reactive Alexa-488 succinimidyl ester (Life Technologies) was dissolved in DMSO and mixed at a 1 to 3 molar ratio with the MK2i or p-HSP20 peptide in 100 mM sodium bicarbonate buffer (pH=8.3) and allowed to react for 3 hours. Unreacted fluorophore and organic solvent were removed using a PD-10 miditrap G-10 desalting column, and the fluorescently labeled MK2i and p-HSP20 peptides were lyophilized. […] Similarly, PPAA was mixed with fluorescently labeled p-HSP20 at a CR of [NH3^+]/[COO^−]=1:3 and syringe filtered through a 0.45 μm PTFE filter to form fluorescent HSP20-NPs. HCAVSMCs were grown to 80-90% confluence, harvested, and seeded at 20,000 cells/well in a 24 well plate and allowed to adhere overnight. […] Following treatment, cells were washed 2× in PBS, and either immediately harvested or incubated in complete growth media for an additional 72 hours. Cells were harvested with 0.05% trypsin-EDTA, centrifuged, and suspended in 0.1% Trypan blue in PBS (−/−) for analysis on a FACSCalibur flow cytometer (Becton Dickinson) with BD CellQuest™ Pro software (V 5.2). Data was exported and analyzed with FlowJo software (V 7.6.4). All samples were run in triplicate.
# c-RAF(h) = c-RAF(h) (Homo sapiens, UniProt P04049); experiment: Kinase Profiling Assay; format: biochemical; details: 100 μM
# Aurora-A(h) = biological target: T1, Aurora-A(h) (Homo sapiens, UniProt O14965); experiment: Kinase Profiling Assay; format: biochemical; details: 100 μM
# T1 sequence (O14965 1-403): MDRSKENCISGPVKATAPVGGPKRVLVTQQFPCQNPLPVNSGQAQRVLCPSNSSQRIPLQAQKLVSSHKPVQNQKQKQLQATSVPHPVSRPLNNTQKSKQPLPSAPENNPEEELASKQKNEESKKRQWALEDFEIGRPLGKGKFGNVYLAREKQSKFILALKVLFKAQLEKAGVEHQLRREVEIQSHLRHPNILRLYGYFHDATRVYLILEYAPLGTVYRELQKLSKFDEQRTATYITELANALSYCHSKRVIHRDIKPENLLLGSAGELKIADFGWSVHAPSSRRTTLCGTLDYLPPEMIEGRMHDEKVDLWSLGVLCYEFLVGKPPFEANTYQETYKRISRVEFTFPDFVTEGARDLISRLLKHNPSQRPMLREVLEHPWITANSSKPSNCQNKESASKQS
# Ab1(Q252H)(h) = Ab1(Q252H)(h) (Homo sapiens, UniProt P00519, Q252H); experiment: Kinase Profiling Assay; format: biochemical; details: 100 μM
# Ab1(H396P)(h) = Ab1(H396P)(h) (Homo sapiens, UniProt P00519, H396P); experiment: Kinase Profiling Assay; format: biochemical; details: 100 μM
# CK1γ1(h) = CK1γ1(h) (Homo sapiens, UniProt Q9HCP0); experiment: Kinase Profiling Assay; format: biochemical; details: 100 μM
# CLK2(h) = CLK2(h) (Homo sapiens, UniProt P49760); experiment: Kinase Profiling Assay; format: biochemical; details: 100 μM
# CLK2(h), sequence (P49760 whole entry): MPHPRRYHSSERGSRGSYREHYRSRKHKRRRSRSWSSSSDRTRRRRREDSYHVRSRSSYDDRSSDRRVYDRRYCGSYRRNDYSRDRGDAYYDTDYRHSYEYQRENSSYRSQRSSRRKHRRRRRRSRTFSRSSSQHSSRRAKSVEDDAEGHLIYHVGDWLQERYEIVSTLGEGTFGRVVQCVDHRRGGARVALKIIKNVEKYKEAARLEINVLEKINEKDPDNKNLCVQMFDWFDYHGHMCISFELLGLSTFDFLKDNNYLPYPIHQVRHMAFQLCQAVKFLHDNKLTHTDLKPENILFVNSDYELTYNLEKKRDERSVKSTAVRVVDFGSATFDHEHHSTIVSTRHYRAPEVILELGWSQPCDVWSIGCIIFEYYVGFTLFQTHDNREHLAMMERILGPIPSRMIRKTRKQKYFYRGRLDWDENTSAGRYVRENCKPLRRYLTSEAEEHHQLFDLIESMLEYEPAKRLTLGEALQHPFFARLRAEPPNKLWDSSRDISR
# CK1γ1(h), sequence (Q9HCP0 whole entry): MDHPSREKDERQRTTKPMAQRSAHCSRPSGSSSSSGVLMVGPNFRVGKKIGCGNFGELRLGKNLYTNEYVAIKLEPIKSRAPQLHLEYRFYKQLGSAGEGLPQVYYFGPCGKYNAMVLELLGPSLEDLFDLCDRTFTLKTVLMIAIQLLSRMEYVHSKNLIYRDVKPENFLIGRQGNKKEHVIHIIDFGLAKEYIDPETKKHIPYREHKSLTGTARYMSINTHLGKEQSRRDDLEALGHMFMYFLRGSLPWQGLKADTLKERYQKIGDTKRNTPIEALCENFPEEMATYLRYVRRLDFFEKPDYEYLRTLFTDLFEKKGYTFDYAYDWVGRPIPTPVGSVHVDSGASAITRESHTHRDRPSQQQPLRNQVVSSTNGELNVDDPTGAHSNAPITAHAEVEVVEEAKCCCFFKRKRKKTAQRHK
substance,measurement,setting,value
H-YARAAARQARAKALARQLGVAA-OH [MMI-0100],intracellular peptide retention (% of initial uptake remaining),HCAVSMCs,54%
HRRIKAWLKKIKALARQLGVAA (Mammalian) [MMI-0500],% activity,c-RAF(h),19%
same,% activity,Aurora-A(h),110%
same,% activity,Ab1(Q252H)(h),40%
same,% activity,Ab1(H396P)(h),51%
YARAAARQARAKALNRQLGVA (Mammalian) [MMI-0200],% activity,CK1γ1(h),98%
same,% activity,CLK2(h),97%

# Reference: US10087225B2, “Formulation of MK2 inhibitor peptides” (MOERAE MATRIX, INC., priority 2015, dated 2018)
